Measurements taken from the supplement of paper PMC10567573.
± gives the standard deviation.

Assay: protein stability index of a GFP-peptide fusion (GPS, HEK-293T) (PSI 1-6); higher = more stable
Conditions: c terminus: a fixed tail appended
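Also: 24-mer peptide tiles fused after GFP, lentivirally expressed, FACS-sorted into six equal bins by GFP/DsRed ratio, decoded by Illumina sequencing, PSI is the read-weighted mean bin number.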

| Sequence | protein stability index (treatment: DMSO) | protein stability index (treatment: MLN4924 1 uM, 8 h) |
| --- | --- | --- |
| AKDEDQWTALHFAAQNGDESSTRL [RIPK4] | 4.54 ± 0.95 | 5.086 ± 0.023 |
| DPDPDPEPAGGSRPGPAVPGLRAL [CMTM3] | 4.92 ± 0.28 | 4.68 ± 0.11 |
| EEDNWDPELMEHTEAESEQEGSSG [TEX19] | 5.7 ± 0.26 | 5.65 ± 0.16 |
| YSGAYGASVSDEELKRRVAEELAL [CHCHD3] | 3.11 ± 0.52 | 3.53 ± 1.1 |
| MGGHHPGADYPVDGLPDLGHAQDL [CTNNB1] | 5.03 ± 0.25 | 5.03 ± 0.3 |
| HSEKMAQYLEEERHMREENLRLQR [CCDC6] | 4.91 ± 0.07 | 4.56 ± 0.25 |
| LEEKCQQPASELLQDVRVNQSRCE [TRIM15] | 5.58 ± 0.22 | 5.53 ± 0.5 |
| HSLERAGSKQYSAAIAFTLALFSH [SMG5] | 2.48 ± 0.41 | 2.49 ± 0.44 |
| GGLLTGNEKITMQNLNDRLASYLE [KRT13] | 3.19 ± 0.15 | 3.24 ± 0.13 |
| AKGASLFTCDLQHTETGEEVLRMC [VPS39] | 3.69 ± 0.055 | 3.73 ± 0.33 |
| EPVTLETPAFMFRLDASTSHQNLR [FSD1] | 3.6 ± 0.35 | 3.83 ± 0.2 |
| KLQQLPADFGRLVNLQHLDLLNNK [LRRC59] | 2.97 ± 0.27 | 3.01 ± 0.33 |
| ERETEATRGRGGLLRDHIPRGKEE [MOG] | 5.38 ± 0.38 | 5.18 ± 0.41 |
| KNERLWLLDDSKTWWRVRNAANRT [NCK2] | 2.31 ± 0.23 | 2.62 ± 0.37 |
| LWILHLLLECYIQYHHSKIRNRGY [TMEM192] | 2.61 ± 0.51 | 2.49 ± 0.32 |
| EEAAFPGRRVNAKMPVYSGSRPAC [ELOA2] | 4.01 ± 0.093 | 3.98 ± 0.27 |
| EISVDSLDFSKKILHTAWHPSENI [PPP2R2B] | 2.28 ± 0.26 | 2.41 ± 0.21 |
| CTLETTVHASGWNKILVPLVLLRQ [BCL2L13] | 2.61 ± 0.38 | 2.38 ± 0.43 |
| LQQQNEDLKARIDQNTVVTRQLSE [MTUS2] | 5.1 ± 0.26 | 5.21 ± 0.083 |
| KEKTAKHFFALKVMSIPDVIRLKQ [PRKX] | 2.44 ± 0.23 | 2.22 ± 0.2 |
| NCEQLCVNVPGSFVCQCYSGYALA [MATN2] | 2.16 ± 0.55 | 2.34 ± 0.53 |
| FLDWLRTNPDLIIVCAQSSQSLWN [SMG5] | 2.5 ± 0.41 | 2.36 ± 0.41 |
| SPEWDTVTPEAKNLINQMLTINPA [CAMK2B] | 3.84 ± 0.18 | 3.86 ± 0.21 |

| Sequence | protein stability index (treatment: DMSO) | protein stability index (treatment: MLN4924 1 uM, 8 h) |
| --- | --- | --- |
| DKRGETTSASLLNAGLSHTEYQIV [SLC2A12] | 3.69 ± 0.17 | 3.91 ± 0.26 |
| FELDLGKKVLNLLKGAFPARLKKV [PTPN9] | 2.84 ± 1.1 | 2.34 ± 0.59 |
| SGGQTSWDSGCLAPPSTRTSHSLP [PLEKHN1] | 4.1 ± 0.068 | 3.98 ± 0.21 |
| SDVLIGDILVLLGASLYAISNVCE [SLC35F2] | 2.79 ± 0.28 | 3.36 ± 0.67 |
| AAFVRAQADLLAHLVPEPDRLEEQ [DNAAF3] | 4.05 ± 0.13 | 4.12 ± 0.29 |
| NWWIRGILTLTMISLFFLIIYMGS [CDS1] | 2.54 ± 0.16 | 2.55 ± 0.35 |
| LLGTSGLKRRFSRLENRYEALAKQ [DAPK3] | 3.04 ± 0.31 | 3.06 ± 0.27 |
| LQRVLEHRRRNQLIKKKKEELEAK [FAM107A] | 3.49 ± 0.29 | 3.81 ± 0.5 |
| LQQERQRLGQRQPPPSEPTQGPEI [DNAJC4] | 5.52 ± 0.16 | 5.16 ± 0.081 |
| DLHCVLVTNPHSSQWKDPALSQLI [GADD45A] | 2.23 ± 0.26 | 2.3 ± 0.16 |
| DGLFDNMPDYMILQELKKLKNSNY [PPTC7] | 2.57 ± 0.3 | 2.85 ± 0.64 |
| EEFLSAMQSARGPTPSSPLPSVPV [PLEKHN1] | 4.15 ± 0.27 | 4.14 ± 0.19 |
| EIQVDSEEPVFEAVINWVKHAKKE [KLHL12] | 3.57 ± 0.4 | 3.92 ± 0.95 |
| PELPEGHLEDWLEKRAKRLSSAPS [ZMAT5] | 4.32 ± 0.12 | 5.14 ± 0.14 |
| FQDAIFPDTQENRRMFSSLFQFSN [CCDC3] | 2.38 ± 0.43 | 2.58 ± 0.37 |
| RNSGIIGGKYLGRTKVVKPYSTVD [EFHC1] | 2.91 ± 0.26 | 3.46 ± 0.17 |
| DPSGKGKGKAGRVDLVDESGYVSG [TPPP] | 5.1 ± 0.42 | 5.27 ± 0.16 |
| SLNGVYPRMNEVYTRLGEMNNAVR [CEP70] | 2.55 ± 0.21 | 3.08 ± 0.31 |
| LMELCRLYHRADVEKVLRRWVDEE [EDARADD] | 2.5 ± 0.58 | 2.4 ± 0.33 |
| PGAPGMPPGIPPLMPGVPPLMPGM [ZNF207] | 3.71 ± 0.13 | 3.62 ± 0.24 |
| EGFADGFVKALDDLHKMNHVTPPN [JUNB] | 4.12 ± 0.22 | 4.17 ± 0.3 |
| EALVNRLWKRMDKLEAEKRILQEK [CCDC6] | 2.93 ± 0.08 | 3.6 ± 0.24 |
